Literature values, collected in paper PMC8217106.

Molecular target: BCL9 (Homo sapiens) (UniProt O00512)
Sequence of UniProt O00512 (O00512 whole entry): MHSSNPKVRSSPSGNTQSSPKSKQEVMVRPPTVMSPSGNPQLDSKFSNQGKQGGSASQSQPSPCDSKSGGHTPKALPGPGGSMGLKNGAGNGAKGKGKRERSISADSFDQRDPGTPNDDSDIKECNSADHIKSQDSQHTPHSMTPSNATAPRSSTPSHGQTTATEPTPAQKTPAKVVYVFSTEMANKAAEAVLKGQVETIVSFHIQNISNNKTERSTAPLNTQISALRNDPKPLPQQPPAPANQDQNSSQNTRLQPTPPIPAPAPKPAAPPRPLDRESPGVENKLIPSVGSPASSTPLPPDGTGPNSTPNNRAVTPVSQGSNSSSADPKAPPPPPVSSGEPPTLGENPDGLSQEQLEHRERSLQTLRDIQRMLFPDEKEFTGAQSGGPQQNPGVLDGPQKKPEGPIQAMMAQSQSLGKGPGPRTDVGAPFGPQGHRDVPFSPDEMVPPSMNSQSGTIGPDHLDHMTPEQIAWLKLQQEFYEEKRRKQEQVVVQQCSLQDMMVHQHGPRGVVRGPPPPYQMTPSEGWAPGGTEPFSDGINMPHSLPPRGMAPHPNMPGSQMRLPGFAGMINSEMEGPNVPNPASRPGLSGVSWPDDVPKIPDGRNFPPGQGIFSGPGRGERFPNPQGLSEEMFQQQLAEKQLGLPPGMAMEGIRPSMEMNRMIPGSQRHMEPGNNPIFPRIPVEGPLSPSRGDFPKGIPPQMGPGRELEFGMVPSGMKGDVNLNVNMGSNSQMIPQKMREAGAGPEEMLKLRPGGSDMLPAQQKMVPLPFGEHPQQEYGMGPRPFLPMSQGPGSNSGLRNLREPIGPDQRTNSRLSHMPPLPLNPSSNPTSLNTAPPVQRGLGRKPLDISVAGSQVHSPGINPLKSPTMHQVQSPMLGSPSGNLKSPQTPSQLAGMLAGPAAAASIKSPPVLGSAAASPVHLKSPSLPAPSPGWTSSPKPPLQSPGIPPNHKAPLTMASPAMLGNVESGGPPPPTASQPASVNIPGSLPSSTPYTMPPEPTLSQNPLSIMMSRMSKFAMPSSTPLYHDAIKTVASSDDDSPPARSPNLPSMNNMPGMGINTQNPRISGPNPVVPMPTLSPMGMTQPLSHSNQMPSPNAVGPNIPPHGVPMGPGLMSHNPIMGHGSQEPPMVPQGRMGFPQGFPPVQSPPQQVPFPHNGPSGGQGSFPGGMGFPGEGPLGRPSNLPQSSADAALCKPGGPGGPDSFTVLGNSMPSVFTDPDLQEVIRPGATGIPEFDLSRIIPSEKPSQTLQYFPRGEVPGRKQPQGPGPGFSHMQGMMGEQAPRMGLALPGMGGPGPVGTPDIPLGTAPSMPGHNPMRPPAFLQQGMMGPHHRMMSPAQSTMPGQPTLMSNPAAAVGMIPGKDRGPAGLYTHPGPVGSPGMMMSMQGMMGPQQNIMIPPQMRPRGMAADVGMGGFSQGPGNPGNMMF

## β-catenin (from UniProt P35222)
  Kd: 470 nM
